Measurements as given in publication PMC5352752, “Discovery and characterization of an F420-dependent glucose-6-phosphate dehydrogenase (Rh-FGD1) from Rhodococcus jostii RHA1” (Applied Microbiology and Biotechnology, 2016).

Target: the molecule itself
Test: SEC; gel permeation analysis in solution, data not shown

B1: F420-dependent glucose-6-phosphate dehydrogenase Rh-FGD1 from Rhodococcus jostii RHA1 (enzyme, UniProt Q0RVH7 1-335, looked up)
chain: MVIKFGYKASAEQFGPRELVELGVLAEAHGMDSATVSDHFQPWRHEGGHAPFSLAWMTAVGERTSRLQLGTSVMTPTFRYNPAVVAQAFATMGCLYPGRIMLGVGTGEALNEIATGFAGEWPEFKERFARLREAVALMRELWLGDRVDFEGNYYKTVGASIYDVPEGGIPVYIAAGGPVVARYAGRSGDGFICTSGKGMELYTEKLMPAVAEGAEKADRDVAEIDKMIEIKISYDTDPELALENTRFWAPLSLTPEQKHSIDDPIEMERAADALPIEQVAKRWIVASDPDEAVAQIRPYLDAGLNHLVFHAPGHDQKRFLELFQRDLAPRLRGLA
notes: each monomer is comprised of residues 1-334; The native enzyme (tag cleaved) was used for crystallization; also called RHA1_RS43115; native Rh-FGD1; source: E. coli C41(DE3), purified (HisTrap, His-SUMO tag cleaved with SUMO protease, second HisTrap, Superdex 200); not shown: His6, N-terminal, cleaved; SUMO, N-terminal, cleaved
stoichiometry N: 2
